Molecular target: the molecule itself
Assay: SEC; Vmp2 on a Superose 6 Increase 10/300 column in SEC buffer with 0.03% DDM

B1: Vmp2 (virulence-associated membrane protein 2), full length without the signal peptide (natural protein)
chain: AESQCEERNDYSRKRPSHKPFTSHQNKQDRSCSSPLPSESCSTSAITPSDSAVRDTSLSRRGLPGMPGDIEWMGFYGSLLAVPTMLSILGIITNYNLGKSYYNSELNAQYYKQSREMLRAHTAKLIQDQEKKFANAGVSWNGMVYGKDGQVNPGAKLPEWNGRVLGGTVANPKSQPVPGSGGAVQGAAAGVGGGTTAGVAAGAGAASAGTGPAQVGGATAGGAGAEAQTGTGAIATGTGTGGAGDAGGSAPVSSGAEQGDAEAGDEARGSEERGDDGTEDRRGGQSEGDDDSDSDGNDEGDAGDAGDAGDA
notes: Vmp2 (UMAG_01689) of Ustilago maydis SG200, a protein of 335 aa, cloned from genomic DNA without the signal peptide (25 aa as predicted by SignalP-5.0); one TM helix at residues 100-115; The methods say that the Mistics-tag was cleaved off with TEV before SEC; also called UMAG_01689; full length Vmp2; source: E. coli OverExpress C43 (DE3), purified (membrane fraction solubilised with DDM, Ni-NTA, …)
stoichiometry N: 2

— paper PMC8176221, “Identification and Characterization of Two Transmembrane Proteins Required for Virulence of Ustilago maydis” (Frontiers in Plant Science, 2021)
